Measured values published in patent US20220332836A1, “A METHOD FOR PREVENTING HUMAN VIRUS ASSOCIATED DISORDERS IN PATIENTS” (NOVARTIS AG, priority 2019, published 2022).

Assays:
[1] = tested on: monocyte-derived dendritic cells (DCs); test: Cytokine production by monocyte-derived dendritic cells; assay type: cell-based
Procedure: (§1) mAb1 binds to human CD40 with high affinity (Kd of 0.3 nM).

non-human primate CD40 = test: Binding to non-human primate CD40
Procedure: as §1

[2] = in vivo
Procedure: (§2) Inflammatory lesions in the kidneys and lungs of 2 animals at 50 mg/kg were noted, and in one of the two animals, lesions in the eyes and trachea were also noted. […] In view of these inflammatory findings, the No Observed Adverse Effect Level (NOAEL) for the 13-week toxicity study was set at 10 mg/kg. […] The NOAEL derived from the 26-week cynomolgus monkey study is considered the most relevant for supporting the clinical dosing regimen.

[3] = tested on: EBV-seropositive EBV-B cell/T cell co-cultures; test: EBV-B cell/T cell co-culture, EBV-seropositive donors
whole blood cultures = whole blood cultures incubated for three days (Ristov 2018); cited from earlier work
CD40 [4] = tested on: CD40; design: species or system cynomolgus monkeys; conditions: cynomolgus monkey, in vivo
Procedure: In a PK/PD study in cynomolgus monkeys, the inflection point (about 10 μg/mL) in the PK profiles was associated with a drop of CD40 saturation, as determined in an independent lymphocyte target saturation assay. As such this inflection point is viewed as a marker for the level of saturation of CD40, and an evidence for target engagement. […] Monkeys were immunized with KLH three times (the first was about 3 weeks prior to dosing, the second was 2 weeks after mAb1 administration, and the third was after complete wash-out of mAb1). […]

[5] = tested on: EBV-seronegative EBV-B cell/T cell co-cultures; test: EBV-B cell/T cell co-culture, EBV-seronegative donors; assay type: cell-based, human
human leukocytes = test: rCD154-induced activation of human leukocytes; assay type: cell-based
Procedure: as §1

CD40 [6] = molecular target: T1, CD40 (Homo sapiens, UniProt P25942); test: Phase 1 single-ascending dose study in healthy subjects and rheumatoid arthritis patients; assay type: in vivo; conditions: for safety and tolerability: interim
T1 construct: CD40 occupancy on peripheral B cells measuring free CD40 and total CD40; endogenous in cells; host or cells: peripheral / whole blood B cells of healthy subjects and rheumatoid arthritis patients (in vivo)
Procedure: The safety, tolerability, PK and PD activity of mAb1 are being assessed in an ongoing, randomized, double-blind, placebo-controlled, single-ascending dose study of mAb1 in healthy subjects and patients with rheumatoid arthritis (RA). A total of 48 subjects have been enrolled: 36 healthy subjects who received single doses of mAb1 up to 3 mg/kg IV or S.C., and 12 patients with RA, 6 of whom received single doses of mAb1 at 10 mg/kg IV. […] An investigation of the 30 mg/kg IV dose is ongoing in RA patients. As this study is still ongoing, all clinical data are preliminary in nature and based on interim analyses conducted up to a dose of 10 mg/kg in RA patients.
In healthy subjects as well as in patients with rheumatoid arthritis, after single IV or SC administration, CFZ533 PK profiles were consistent with target mediated disposition resulting in non-linear PK profiles and more rapid clearance when CD40 receptor occupancy dropped below approximately 90%. […]

PBMC = test: Induction of PBMC proliferation; assay type: cell-based
Procedure: as §1

[7] = 26-week chronic toxicity study in cynomolgus monkeys; assay type: in vivo; conditions: for mean Cmax,ss: sc
Procedure: as §2
Adequate safety margin from preclinical toxicological studies: GLP toxicology studies to date have tested CFZ533 at (i) weekly s.c. dosing for 13 weeks at 10, 50, and 150 mg/kg (s.c. and i.v.) in rhesus monkeys, and (ii) weekly s.c. dosing for 26 weeks at 1, 50, and 150 mg/kg in cynomolgus monkeys.
In the 26-week toxicity study in cynomolgus monkey, at steady state, an average concentration of 8300 μg/mL (Cav,ss) was obtained after weekly dosing at 150 mg/kg (NOAEL).
The 10 mg/kg i.v. regimen was expected to provide, throughout the entire treatment period (placebo-controlled and open-label, see FIG. 3), sustained plasma concentrations above 40 μg/mL, to anticipate for higher CD40 expression in tx patients, and incomplete PD effects in target tissue due to loss of target saturation.

[8] = 10-200 μg/mL, priming, recall, priming and recall, 11 days
[9] = 10 μg/mL (priming only; priming and recall) and 50 μg/mL (recall only)
[10] = single dose of 3 mg/kg (IV and SC)
[11] = cynomolgus monkey, in vivo, 150 mg/kg

T1 sequence (P25942 21-277): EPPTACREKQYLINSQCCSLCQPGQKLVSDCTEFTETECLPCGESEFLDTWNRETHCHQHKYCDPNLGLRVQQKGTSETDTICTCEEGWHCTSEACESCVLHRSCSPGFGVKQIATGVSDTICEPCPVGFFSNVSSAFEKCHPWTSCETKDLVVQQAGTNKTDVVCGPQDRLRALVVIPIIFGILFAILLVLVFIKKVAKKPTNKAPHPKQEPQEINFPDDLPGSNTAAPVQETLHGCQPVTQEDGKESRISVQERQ

Which results are given for “CFZ533: fully human monoclonal Fc-silent, non-depleting anti-CD40 antibody (IgG1/K); heavy chain SEQ ID NO: 9, light chain SEQ ID NO: 10”?
induction of cytokine production by monocyte-derived dendritic cells [1]: does not induce; affinity for human and non-human primate CD40 (non-human primate CD40): very similar affinities; organ toxicities [2]: did not reveal any significant organ toxicities; thromboembolic events [2]: no evidence of thromboembolic events; CD3+ T cell proliferation [3, 8]: no reducing effect; CD4+ T cell proliferation [3, 8]: no decreasing effect; CD4+ T cell proliferation ([3]; priming only phase): slight decline; ADCC (whole blood cultures): no ADCC; inflection point in the PK profiles (drop of CD40 saturation) (CD40 [4]): about 10 μg/mL; CD4+ T cell proliferation [5, 9]: slight not significant increase; CD8+ T cell proliferation [5, 9]: slight not significant increase; CD4+ T cell proliferation ([5]; 10-200 μg/mL, all three conditions): no effects; CD3+ T cell proliferation [5, 8]: no reducing effect; CD8+ T cell proliferation ([5]; all tested concentrations): no major effects; rCD154-induced activation of human leukocytes (human leukocytes): inhibits; disposition in Chinese subjects versus non-Chinese subjects (CD40 [6]; 3 mg/kg IV): generally similar; duration of target engagement (CD40 [6]; 3 mg/kg IV): about 4 weeks; duration of target engagement (CD40 [6]; 3 mg/kg SC): about 4 weeks; time of peak plasma concentration post-dose (CD40 [6]; 3 mg/kg SC, healthy subjects): 3 days; duration of full CD40 occupancy (CD40 [6]; 10 mg/kg IV, rheumatoid arthritis patients): 8 weeks; duration of target engagement (CD40 [6]; 30 mg/kg IV, rheumatoid arthritis patients): 16 weeks; decrease in total CD40 on peripheral B cells (CD40 [6]; healthy subjects): about 50%; rCD154-induced CD69 expression on B cells (CD40 [6]; human whole blood, during full CD40 occupancy): generally suppressed; extent of exposure (AUClast) versus dose (CD40 [6]; human, in vivo): increased more than the increase in dose; plasma concentration associated with full (>90%) CD40 occupancy on whole blood B cells (CD40 [6]; human, in vivo): 0.3 to 0.4 µg/mL; decrease in total CD40 on peripheral B cells (CD40 [6]; patients with rheumatoid arthritis): not confirmed; safety and tolerability (CD40 [6]; single 10 mg/kg, RA patients): safe and well tolerated; CD40 receptor occupancy below which clearance is more rapid (CD40 [6]; single IV or SC administration): approximately 90%; safety in Phase 1 study CCFZ533×2101 (CD40 [6]; single ascending doses 0.03 to 30 mg/kg i.v. and 3 mg/kg s.c.): did not reveal major safety concern; anti-KLH responses to the first KLH immunization (CD40 [6]; [10]): transiently suppressed; duration of full (>90%) receptor occupancy with anti-KLH suppression (CD40 [6]; [10]): 3-4 weeks; safety and tolerability (CD40 [6]; single doses up to 3 mg/kg, healthy volunteers): safe and well tolerated; induction of PBMC proliferation (PBMC): does not induce; average steady state plasma concentration with complete suppression of germinal centers in cortical B cell areas of lymph nodes ([7]; 1 mg/kg dose group): > 38 µg/mL; NOAEL ([7]; 26-week, cynomolgus): 150 mg/kg; adverse findings ([7]; cynomolgus monkey, in vivo): no adverse, mAb1-related findings; average concentration at steady state (Cav,ss) [7, 11]: 8300 µg/mL; systemic exposure (AUC, steady state) over a 1-month period [7, 11]: 232400 µg·days/mL; mean Cmax,ss ([7]; cynomolgus monkey, in vivo, 1 mg/kg): 44 µg/mL; mean Cmax,ss ([7]; cynomolgus monkey, in vivo, 50 mg/kg): 3235 µg/mL; GCs in cortical B-cell areas of the spleen and lymphatic tissues ([7]; post-mortem histological and immuno-histological evaluation): decrease; Cmax margin: cynomolgus Cmax,ss at NOAEL versus expected human Cmax ([7]; proposed intravenous regimen): 24 fold
